Test results from US12303551B2, “Cellular immunotherapy compositions and uses thereof” (CERO THERPEUTICS HOLDINGS, INC., priority 2018, dated 2025).

Test system: HPV+ SCC152 target cells
Experiment: Mass cytometry (CyTOF) viSNE marker analysis of CER-transduced CD4+ T cells after antigen encounter
Assay type: cell-based
Settings: for viSNE islands expressing intracellular marker IFNγ / viSNE islands expressing T cell activation marker CD69: CER-transduced CD4+ T cells co-cultured with E7 TCR CD8+ T cells and SCC152; for memory formation after antigen encounter: CER-transduced CD4+ T cells; for viSNE islands expressing naïve T cell marker CD45RA within the CCR7+ population: compared to controls
Description: FIG. 64A-64B show viSNE maps of mass cytometry data of CER-transduced CD4+ T cells upon antigen encounter. CER-transduced CD4+ T cells were co-cultured with E7-specific TCR-transduced CD8+ T cells and HPV+ SCC152 target cells and then interrogated by mass cytometry (CyTof). Intact CER-CD4+ T cells are shown in plots displaying tSNE1 and tSNE2 axes. Nine intracellular markers were used for the viSNE analysis. Each dot represents a single cell. […] FIG. 64B: Populations of CD4^+ T cells were generated using a clustering algorithm from all 32 markers and overlaid onto the viSNE map.
(§1) FIGS. 65A-65B show viSNE maps of mass cytometry data of CER-expressing CD4+ T cells upon antigen encounter. CER-transduced CD4+ T cells were co-cultured with E7-specific TCR-transduced CD8+ T cells and HPV+ SCC152 target cells and then interrogated by mass cytometry (CyTof). Intact CER-CD4+ T cells are shown in plots displaying tSNE1 and tSNE2 axes. Eighteen cell surface markers were used for the viSNE analysis. Each dot represents a single cell. FIG. 65A: Populations of CD4^+ T cells were generated using a clustering algorithm from all 18 markers and overlaid onto the viSNE map. […] FIG. 65B: Color plots show the phenotype across viSNE ‘islands.’ Red represents high expression and blue represents low expression for each marker. Highlighted region indicates cells expressing T cell activation marker CD69.
as §1, with “FIGS. 66A-66B” for “FIGS. 65A-65B”, “FIG. 66A:” for “FIG. 65A:”, “FIG. 66B:” for “FIG. 65B:”, “cells the naïve” for “cells expressing”, “cell” for “cell activation”, “marker CD45RA.” for “marker CD69.”
CD4+ T cells were transduced with lentiviral vector comprising CER104, CER116, or CER117 nucleic acid. CER104 (SEQ ID NO:139) comprises a Tim4 binding domain, Tim4 transmembrane domain, and an engulfment signaling domain comprising a primary engulfment signaling domain comprising a TLR8 signaling domain and a secondary engulfment signaling domain comprising a DAP12 signaling domain. CER116 (SEQ ID NO:152) comprises a Tim4 binding domain, Tim4 transmembrane domain, and an engulfment signaling domain comprising a primary engulfment signaling domain comprising a TRAF6 signaling domain and a secondary engulfment signaling domain comprising a TLR8 signaling domain. CER117 (SEQ ID NO:153) comprises a Tim4 binding domain, Tim4 transmembrane domain, and an engulfment signaling domain comprising a primary engulfment signaling domain comprising a TLR8 signaling domain and a secondary engulfment signaling domain comprising a TRAF6 signaling domain. CER-transduced CD4+ T cells were co-cultured with E7 TCR-transduced CD8+ T cells and HPV+ SCC152 target cells and interrogated by mass cytometry (CyTOF) with viSNE for visualization of high dimensional single cell data (FIGS. 64-66). Intact CER-transduced CD4+ T cells are shown in plots displaying tSNE1 (horizontal) and tSNE2 (vertical) axes. 27 intracellular markers were used for the viSNE analysis. Each dot represents a single cell. […] Red represents high expression and blue represents low expression for each marker. Populations of CD4^+ T cells were generated using a clustering algorithm from all 27 markers and overlaid onto the viSNE map. […] Populations of CD4^+ T cells were generated using a clustering algorithm from all 18 markers and overlaid onto the viSNE map (FIG. 65A). […]

B1: CER117: Chimeric engulfment receptor: Tim4 binding, Tim4 transmembrane, TLR8 and TRAF6 signaling; SEQ ID NO: 153 (protein)
chain: MSKGLLLLWLVTELWWLYLTPAASEDTIIGFLGQPVTLPCHYLSWSQSRNSMCWGKGSCPNSKCNAELLRTDGTRIISRKSTKYTLLGKVQFGEVSLTISNTNRGDSGVYCCRIEVPGWFNDVKKNVRLELRRATTTKKPTTTTRPTTTPYVTTTTPELLPTTVMTTSVLPTTTPPQTLATTAFSTAVTTCPSTTPGSFSQETTKGSAFTTESETLPASNHSQRSMMTISTDIAVLRPTGSNPGILPSTSQLTTQKTTLTTSESLQKTTKSHQINSRQTILIIACCVGFVLMVLLFLAFLHHLFYWDVWFIYNVCLAKVKGYRSLSTSQTFYDAYISYDTKDASVTDWVINELRYHLEESRDKNVLLCLEERDWDPGLAIIDNLMQSINQSKKTVFVLTKKYAKSWNFKTAFYLALQRLMDENMDVIIFILLEPVLQHSQYLRLRQRICKSSILQWPDNPKAEGLFWQTLRNVVLTENDSRYNNMYVDSIKQYMSLLNCENSCGSSQSESDCCVAMASSCSAVTKDDSVGGTASTGNLSSSFMEEIQGYDVEFDPPLESKYECPICLMALREAVQTPCGHRFCKACIIKSIRDAGHKCPVDNEILLENQLFPDNFAKREILSLMVKCPNEGCLHKMELRHLEDHQAHCEFALMDCPQCQRPFQKFHINIHILKDCPRRQVSCDNCAASMAFEDKEIHDQNCPLANVICEYCNTILIREQMPNHYDLDCPTAPIPCTFSTFGCHEKMQRNHLARHLQENTQSHMRMLA
modifications: CER117, amino acids 1-22 are signal peptide
- viSNE islands expressing intracellular marker IFNγ: enrichment of islands expressing the intracellular marker IFNγ

B2: CER104: Chimeric engulfment receptor: Tim4 binding, Tim4 transmembrane, TLR8 and DAP12 signaling; SEQ ID NO: 139 (protein)
chain: MSKGLLLLWLVTELWWLYLTPAASEDTIIGFLGQPVTLPCHYLSWSQSRNSMCWGKGSCPNSKCNAELLRTDGTRIISRKSTKYTLLGKVQFGEVSLTISNTNRGDSGVYCCRIEVPGWFNDVKKNVRLELRRATTTKKPTTTTRPTTTPYVTTTTPELLPTTVMTTSVLPTTTPPQTLATTAFSTAVTTCPSTTPGSFSQETTKGSAFTTESETLPASNHSQRSMMTISTDIAVLRPTGSNPGILPSTSQLTTQKTTLTTSESLQKTTKSHQINSRQTILIIACCVGFVLMVLLFLAFLHHLFYWDVWFIYNVCLAKVKGYRSLSTSQTFYDAYISYDTKDASVTDWVINELRYHLEESRDKNVLLCLEERDWDPGLAIIDNLMQSINQSKKTVFVLTKKYAKSWNFKTAFYLALQRLMDENMDVIIFILLEPVLQHSQYLRLRQRICKSSILQWPDNPKAEGLFWQTLRNVVLTENDSRYNNMYVDSIKQYYFLGRLVPRGRGAAEAATRKQRITETESPYQELQGQRSDVYSDLNTQRPYYK
modifications: CER104, amino acids 1-22 are signal peptide
- memory formation after antigen encounter: associated with memory formation after antigen encounter
- viSNE islands expressing T cell activation marker CD69: enrichment of islands expressing the T cell activation marker CD69
- viSNE islands expressing intracellular marker IFNγ: enrichment of islands expressing the intracellular marker IFNγ
- viSNE islands expressing naïve T cell marker CD45RA within the CCR7+ population: loss of islands expressing the naïve T cell marker CD45RA

B3: CER116: Chimeric engulfment receptor: Tim4 binding, Tim4 transmembrane, TRAF6 and TLR8 signaling; SEQ ID NO: 152 (protein)
chain: MSKGLLLLWLVTELWWLYLTPAASEDTIIGFLGQPVTLPCHYLSWSQSRNSMCWGKGSCPNSKCNAELLRTDGTRIISRKSTKYTLLGKVQFGEVSLTISNTNRGDSGVYCCRIEVPGWFNDVKKNVRLELRRATTTKKPTTTTRPTTTPYVTTTTPELLPTTVMTTSVLPTTTPPQTLATTAFSTAVTTCPSTTPGSFSQETTKGSAFTTESETLPASNHSQRSMMTISTDIAVLRPTGSNPGILPSTSQLTTQKTTLTTSESLQKTTKSHQINSRQTILIIACCVGFVLMVLLFLAFLMSLLNCENSCGSSQSESDCCVAMASSCSAVTKDDSVGGTASTGNLSSSFMEEIQGYDVEFDPPLESKYECPICLMALREAVQTPCGHRFCKACIIKSIRDAGHKCPVDNEILLENQLFPDNFAKREILSLMVKCPNEGCLHKMELRHLEDHQAHCEFALMDCPQCQRPFQKFHINIHILKDCPRRQVSCDNCAASMAFEDKEIHDQNCPLANVICEYCNTILIREQMPNHYDLDCPTAPIPCTFSTFGCHEKMQRNHLARHLQENTQSHMRMLAHHLFYWDVWFIYNVCLAKVKGYRSLSTSQTFYDAYISYDTKDASVTDWVINELRYHLEESRDKNVLLCLEERDWDPGLAIIDNLMQSINQSKKTVFVLTKKYAKSWNFKTAFYLALQRLMDENMDVIIFILLEPVLQHSQYLRLRQRICKSSILQWPDNPKAEGLFWQTLRNVVLTENDSRYNNMYVDSIKQY
modifications: CER116, amino acids 1-22 are signal peptide
- memory formation after antigen encounter: associated with memory formation after antigen encounter
- viSNE islands expressing T cell activation marker CD69: enrichment of islands expressing the T cell activation marker CD69
- viSNE islands expressing intracellular marker IFNγ: enrichment of islands expressing the intracellular marker IFNγ
- viSNE islands expressing naïve T cell marker CD45RA within the CCR7+ population: loss of islands expressing the naïve T cell marker CD45RA
